Test results taken from patent US6458552B1, “Metalloprotease peptide substrates and methods” (Ortho-McNeil Pharmaceutical, Inc., priority 2000, dated 2002).

T1: MDC-L (Homo sapiens, UniProt Q9UKQ2)
T1 construct: FLAG (C); made in house; host or cells: Sf9 insect cells (baculovirus, pFastBac1)
T1 sequence (Q9UKQ2 204-399 limits assumed): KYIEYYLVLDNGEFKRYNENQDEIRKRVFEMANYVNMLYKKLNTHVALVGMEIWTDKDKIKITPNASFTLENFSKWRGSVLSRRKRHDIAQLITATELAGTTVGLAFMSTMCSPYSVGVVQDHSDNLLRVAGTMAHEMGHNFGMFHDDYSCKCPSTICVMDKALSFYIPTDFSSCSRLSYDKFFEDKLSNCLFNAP

T2: ADAM15 (Homo sapiens, UniProt Q13444)
T2 construct: FLAG (C); made in house; host or cells: Sf9 insect cells (baculovirus, pFastBac1)
T2 sequence (Q13444 213-414 limits assumed): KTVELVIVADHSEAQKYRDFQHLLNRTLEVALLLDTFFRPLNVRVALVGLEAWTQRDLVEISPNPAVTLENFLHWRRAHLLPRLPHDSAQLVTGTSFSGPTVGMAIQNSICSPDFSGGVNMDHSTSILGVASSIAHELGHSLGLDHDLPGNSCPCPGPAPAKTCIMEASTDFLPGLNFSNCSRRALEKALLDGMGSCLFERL

T3: ADAM8 (Homo sapiens, UniProt P78325)
T3 construct: FLAG (C); made in house; host or cells: Sf9 insect cells (baculovirus, pFastBac1)
T3 sequence (P78325 200-400 limits assumed): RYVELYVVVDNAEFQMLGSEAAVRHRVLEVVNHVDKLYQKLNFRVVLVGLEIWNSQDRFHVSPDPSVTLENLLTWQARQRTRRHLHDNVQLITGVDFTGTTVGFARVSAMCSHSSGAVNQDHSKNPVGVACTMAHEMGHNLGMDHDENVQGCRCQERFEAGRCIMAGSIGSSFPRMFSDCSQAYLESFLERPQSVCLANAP

T4: CatE1 FRET peptide X-KPAKFFRL-Z (not fully specified)
T4 chain: KPAKFFRL


Assays:
MDC-L = molecular target: T1, MDC-L; assay: FRET peptide substrate screening, MDC-L; assay type: biochemical; parameters: key: from one star (*) to five stars (*****) to indicate weaker to more potent substrates respectively; from one star (*) to five stars (*****) to indicate weaker to more potent substrates respectively; from one star (*) to five stars (*****) to indicate weaker to more potent substrates respectively; from one star (*) to five stars (*****) to indicate weaker to more potent substrates respectively; (—) = no detectable activity; settings: FRET peptide 20 uM, room temperature
Source text: (§1) Forty nine different peptides were synthesized for testing protease activity. The peptides comprised (i) a collection of substrates for other proteases, as well as (ii) a number of sequences corresponding to membrane proximal cleavage sites of various proteins postulated to be released by metalloproteases (including those published by (Roghani et al., 1999) for ADAM9/MDC9). In order to use the principle of fluorescence resonance energy transfer, or FRET, for the assay, the peptides were labelled at the C-terminus with Dabcyl and at the N-terminus with Edans. Thus cleavage of the peptides can be monitored by the increase in Edans fluorescence at 460 nm (excitation 360 nm) as a result of the decrease in proximity of the Dabcyl quencher. The assay was performed by diluting the ADAM8, ADAM15, MDC-L, or ADAM17 (50 to 100 ng of protein, one to two picomoles) in assay buffer, 10 mM HEPES, pH 7.5, containing 0.001% Brij35. The reaction was initiated by the addition of peptide substrate to a final concentration of 20 uM. The assays were typically run for 20 to 60 minutes at room temperature and the slope of the kinetic increase in fluorescence was determined to calculate the rate of the reaction. If necessary, it was possible to stop the reaction at a certain time by the addition of 1/10th volume of 1M NaOAc (sodium acetate), pH 3.5.
(§2) This peptide was cleaved by all enzymes, and thus was chosen to represent a standard by which to compare the relative activity of the various enzymes for their potential to cleave the various peptide substrates.

ADAM17 = molecular target: T5, ADAM17 (Homo sapiens, UniProt P78536); assay: FRET peptide substrate screening, ADAM17; assay type: biochemical; parameters: key: from one star (*) to five stars (*****) to indicate weaker to more potent substrates respectively; from one star (*) to five stars (*****) to indicate weaker to more potent substrates respectively; from one star (*) to five stars (*****) to indicate weaker to more potent substrates respectively; from one star (*) to five stars (*****) to indicate weaker to more potent substrates respectively; (—) = no detectable activity; settings: FRET peptide 20 uM, room temperature
T5 construct: made in house
Source text: as §1, §2

ADAM15 = molecular target: T2, ADAM15; assay: FRET peptide substrate screening, ADAM15; assay type: biochemical; parameters: key: from one star (*) to five stars (*****) to indicate weaker to more potent substrates respectively; from one star (*) to five stars (*****) to indicate weaker to more potent substrates respectively; from one star (*) to five stars (*****) to indicate weaker to more potent substrates respectively; from one star (*) to five stars (*****) to indicate weaker to more potent substrates respectively; (—) = no detectable activity; settings: FRET peptide 20 uM, room temperature
Source text: as §1, §2

ADAM8 [1] = molecular target: T3, ADAM8; assay: FRET peptide substrate screening, ADAM8; assay type: biochemical; parameters: key: from one star (*) to five stars (*****) to indicate weaker to more potent substrates respectively; from one star (*) to five stars (*****) to indicate weaker to more potent substrates respectively; from one star (*) to five stars (*****) to indicate weaker to more potent substrates respectively; from one star (*) to five stars (*****) to indicate weaker to more potent substrates respectively; (—) = no detectable activity; settings: FRET peptide 20 uM, room temperature
Source text: as §1, §2

ADAM8 [2] = molecular target: T3, ADAM8; assay: Kinetic analysis of the affinity of ADAM8 for cleavage of 4 peptides; assay type: biochemical; settings: for K0.5 (substrate concentration at which the enzyme activity was 50% of the Vmax): ADAM8, 30 minutes at room temperature, by inspection of the fitted curves; for Cleavage site of ADAM8 within the peptide: carot marks the cleavage site
Experimental: To confirm the screening assay, ADAM8 was further analyzed for its catalytic rate for 4 different peptides. The assay was performed by diluting the ADAM8 in assay buffer, 10 mM HEPES, pH 7.5, containing 0.001% Brij35. […] The assay was run for 30 minutes at room temperature. […] The curves were fitted to the data with the program Grafit (Erithacus Software). […] The Vmax for each substrate was calculated by non-linear fitting of the data. The substrate concentration at which the enzyme activity was 50% of the Vmax (designated “K0.5”) was determined by inspection of the fitted curves. Table 2 also provides the cleavage site of ADAM8 within each peptide, as indicated by a carot within the peptide sequence.

[3] = molecular target: T4, CatE1 FRET peptide X-KPAKFFRL-Z

T5 sequence (P78536 215-824, species assumed): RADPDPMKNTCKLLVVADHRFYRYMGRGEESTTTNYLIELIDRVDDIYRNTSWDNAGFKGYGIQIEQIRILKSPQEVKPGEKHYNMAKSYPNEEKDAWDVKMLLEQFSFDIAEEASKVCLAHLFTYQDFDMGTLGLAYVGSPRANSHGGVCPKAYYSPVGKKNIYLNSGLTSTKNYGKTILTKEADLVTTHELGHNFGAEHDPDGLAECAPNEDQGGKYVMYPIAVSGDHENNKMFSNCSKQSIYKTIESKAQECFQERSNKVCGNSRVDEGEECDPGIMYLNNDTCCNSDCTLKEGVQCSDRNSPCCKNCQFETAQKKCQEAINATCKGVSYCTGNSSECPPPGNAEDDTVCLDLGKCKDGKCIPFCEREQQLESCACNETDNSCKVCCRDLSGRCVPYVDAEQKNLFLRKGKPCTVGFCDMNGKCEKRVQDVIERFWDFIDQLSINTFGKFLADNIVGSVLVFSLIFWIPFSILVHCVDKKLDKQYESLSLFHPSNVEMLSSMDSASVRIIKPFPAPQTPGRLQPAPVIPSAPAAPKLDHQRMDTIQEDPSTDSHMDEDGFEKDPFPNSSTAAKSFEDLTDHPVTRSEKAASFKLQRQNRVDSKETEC

Molecule	Relative proteolytic activity MDC-L (MDC-L)	Relative proteolytic activity ADAM17 (ADAM17)	Relative proteolytic activity ADAM15 (ADAM15)	Relative proteolytic activity ADAM8 (ADAM8 [1])	K0.5 (substrate concentration at which the enzyme activity was 50% of the Vmax) (ADAM8 [2])	Cleavage site of ADAM8 within the peptide (ADAM8 [2])	fluorometric proteolytic assay / FRET peptide zymography [3]
X-RTAAVFRP-Z ({Edans‑E}-RTAAVFRP-{dabcyl‑K}) [AD8P, FRET peptide substrate; X = Edans-E; Z = dabcyl-K]	*	*****	*	*			
X-PSAAQTARQHP-Z ({Edans‑E}-PSAAQTARQHP-{dabcyl‑K}) [TNFB2, FRET peptide substrate; X = Edans-E; Z = dabcyl-K]	***	(—)	***	***			
X-PPVAASSLRN-Z ({Edans‑E}-PPVAASSLRN-{dabcyl‑K}) [KL1, FRET peptide substrate; X = Edans-E; Z = dabcyl-K]	***	(—)	***	***			
Z-RGVVNASSRLAK-X ({dabcyl‑K}-RGVVNASSRLAK-{Edans‑E}) [KAS-1, FRET peptide substrate; X = Edans-E; Z = dabcyl-K]	***	(—)	***	***			
X-RFAQAQQQLP-Z ({Edans‑E}-RFAQAQQQLP-{dabcyl‑K}) [CD27L, FRET peptide substrate; X = Edans-E; Z = dabcyl-K]	****	(—)	****	****	5 µM	XRFAQA^QQQLPZ	
X-PLAQAVRSSS-Z ({Edans‑E}-PLAQAVRSSS-{dabcyl‑K}) [TNFα, FRET peptide substrate; X = Edans-E; Z = dabcyl-K]	***	***	***	***	5 µM	XPLAQAVRS^SSZ	
Z-LAQAVRSSSR-X ({dabcyl‑K}-LAQAVRSSSR-{Edans‑E}) [TNFα(−4 + 6), FRET peptide substrate; X = Edans-E; Z = dabcyl-K]	*	***	*	*			
Z-RPLGLAR-X ({dabcyl‑K}-RPLGLAR-{Edans‑E}) [Mat, FRET peptide substrate; X = Edans-E; Z = dabcyl-K]	***	***	***	***			
X-RVRRALPS-Z ({Edans‑E}-RVRRALPS-{dabcyl‑K}) [AD8P2, FRET peptide substrate; X = Edans-E; Z = dabcyl-K]	***	(—)	***	***			
X-KPAKFFRL-Z ({Edans‑E}-KPAKFFRL-{dabcyl‑K}) [CatEl, FRET peptide substrate; X = Edans-E; Z = dabcyl-K]	*****	(—)	*****	*****	2.5 µM	XKPAKF^FRLZ	
X-KPAAFFRL-Z ({Edans‑E}-KPAAFFRL-{dabcyl‑K}) [CatE, FRET peptide substrate; X = Edans-E; Z = dabcyl-K]	*****	(—)	*****	*****	5 µM	XKPAAF^FRLZ	
soluble recombinant human ADAM8 with pro- and protease domains and C-terminal FLAG epitope (inactive precursor form) (protein) IAPSRPWALMEQYEVVLPWRLPGPRVRRALPSHLGLHPERVSYVLGATGHNFTLHLRKNRDLLGSGYTETYTAANGSEVTEQPRGQDHCFYQGHVEGYPDSAASLSTCAGLRGFFQVGSDLHLIEPLDEGGEGGRHAVYQAEHLLQTAGTCGVSDDSLGSLLGPRTAAVFRPRPGDSLPSRETRYVELYVVVDNAEFQMLGSEAAVRHRVLEVVNHVDKLYQKLNFRVVLVGLEIWNSQDRFHVSPDPSVTLENLLTWQARQRTRRHLHDNVQLITGVDFTGTTVGFARVSAMCSHSSGAVNQDHSKNPVGVACTMAHEMGHNLGMDHDENVQGCRCQERFEAGRCIMAGSIGSSFPRMFSDCSQAYLESFLERPQSVCLANAP							showed no activity in the fluorometric proteolytic assay
